Results published in patent US20230105029A1.
Several values for one entry are separate records, joined by “and”; a condition that tells them apart may be missing. Equal entries are not always repeated. Where two headings read alike, the source gives them in different places.

How the values were obtained:
[1] = biological target: recombinant human IL4Rα-his protein (in house made) (human) (UniProt P24394); experiment: competitive ELISA: antibody mixed with biotin human IL4Rα-his, competitor plate-coated Benchmark
[2] = biological target: recombinant human IL4Rα-his protein (in house made) (human) (UniProt P24394); experiment: as above; remark: listed apart in the source
[3] = biological target: human IL4Rα expressed on HEK293T-IL4Rα-STAT6-STAT6LUC-LB2 cells (human) (UniProt P24394); experiment: cell-based or functional assay
[4] = biological target: human IL4Rα expressed on 293F-IL4Rα cells (human) (UniProt P24394); experiment: flow cytometry on 293F-IL4Rα cells
[5] = biological target: human IL4Rα expressed on 293F-IL4Rα cells (human) (UniProt P24394); experiment: flow cytometry, 293F-IL4Rα cells
[6] = biological target: human IL4Rα expressed on 293F-IL4Rα cells (human) (UniProt P24394); experiment: flow cytometry on 293F-IL4Rα cells; remark: listed apart in the source
[7] = biological target: cynomolgus monkey IL4Rα-his protein (cynomolgus monkey); experiment: indirect ELISA on coated cynomolgus IL4Rα-his
cynomolgus monkey IL4Rα-his protein (cynomolgus monkey), sequence (chain, as listed by the source): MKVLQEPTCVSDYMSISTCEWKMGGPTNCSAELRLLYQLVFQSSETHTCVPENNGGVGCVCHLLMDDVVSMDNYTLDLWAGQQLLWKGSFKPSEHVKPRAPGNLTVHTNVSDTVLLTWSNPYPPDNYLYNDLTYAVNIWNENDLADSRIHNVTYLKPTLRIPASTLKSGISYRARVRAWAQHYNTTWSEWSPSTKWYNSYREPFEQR

[8] = biological target: human IL4Rα expressed on 293F-IL4Rα cells (human) (UniProt P24394); experiment: flow cytometry on 293F-IL4Rα cells; remark: listed apart in the source
[9] = biological target: recombinant human IL4Rα-his protein (in house made) (human) (UniProt P24394); experiment: competitive ELISA, blocks biotin-IL4Rα-his binding to coated Benchmark (self-competition)
[10] = biological target: human IL4Rα expressed on 293F-IL4Rα cells (human) (UniProt P24394); experiment: flow cytometry on 293F-IL4Rα cells, blocked ligand biotin human IL4
[11] = biological target: human IL4Rα expressed on 293F-IL4Rα cells (human) (UniProt P24394); experiment: as above; remark: listed apart in the source
[12] = biological target: recombinant human IL4Rα-his protein (in house made) (human) (UniProt P24394); experiment: SPR (Biacore), antibody captured, IL4Rα-his flowed
[13] = biological target: recombinant human IL4Rα-his protein (in house made) (human) (UniProt P24394); experiment: capture ELISA, biotin-IL4Rα-his
[14] = biological target: human IL4Rα expressed on HEK293T-IL4Rα-STAT6-STAT6LUC-LB2 cells (human) (UniProt P24394); experiment: cell-based or functional assay; remark: listed apart in the source
[15] = biological target: recombinant human IL4Rα-his protein (in house made) (human) (UniProt P24394); experiment: competitive ELISA: coated human IL4Rα-his, blocked ligand biotin human IL4
[16] = biological target: recombinant human IL4Rα-his protein (in house made) (human) (UniProt P24394); experiment: capture ELISA: antibody captured on anti-IgG Fc plate, biotin human IL4Rα-his detected
[17] = biological target: recombinant human IL4Rα-his protein (in house made) (human) (UniProt P24394); experiment: SPR (Biacore), antibody captured, IL4Rα-his flowed; remark: listed apart in the source
[18] = biological target: recombinant human IL4Rα-his protein (in house made) (human) (UniProt P24394); experiment: capture ELISA: antibody captured on anti-IgG Fc plate, biotin human IL4Rα-his detected; remark: listed apart in the source
[19] = biological target: cynomolgus monkey IL4Rα-his protein (cynomolgus monkey); experiment: indirect ELISA, coated cyno IL4Rα-his
[20] = biological target: recombinant human IL4Rα-his protein (in house made) (human) (UniProt P24394); experiment: SPR (Biacore), antibody captured, IL4Rα-his flowed; remark: listed apart in the source
[21] = biological target: recombinant human IL4Rα-his protein (in house made) (human) (UniProt P24394); experiment: competitive ELISA, blocks biotin-IL4 binding to coated IL4Rα-his
[22] = biological target: human IL4Rα expressed on 293F-IL4Rα cells (human) (UniProt P24394); experiment: flow cytometry, blocks biotin-IL4 binding to 293F-IL4Rα cells
[23] = biological target: human IL4Rα expressed on 293F-IL4Rα cells (human) (UniProt P24394); experiment: flow cytometry on 293F-IL4Rα cells; remark: listed apart in the source
[24] = biological target: recombinant human IL4Rα-his protein (in house made) (human) (UniProt P24394); experiment: SPR (Biacore), antibody captured, IL4Rα-his flowed; remark: listed apart in the source
[25] = biological target: marmoset monkey IL4Rα-his protein (marmoset monkey); experiment: indirect ELISA on coated cal-IL4Rα-his
marmoset monkey IL4Rα-his protein (marmoset monkey), sequence (chain, as listed by the source limits assumed): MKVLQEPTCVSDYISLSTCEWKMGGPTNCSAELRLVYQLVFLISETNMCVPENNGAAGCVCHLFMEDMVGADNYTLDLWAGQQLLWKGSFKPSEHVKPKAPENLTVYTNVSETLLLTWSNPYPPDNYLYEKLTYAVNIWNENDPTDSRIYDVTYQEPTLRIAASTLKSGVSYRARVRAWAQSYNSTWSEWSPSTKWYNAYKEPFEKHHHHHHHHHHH

[26] = biological target: human IL4Rα expressed on 293F-IL4Rα cells (human) (UniProt P24394); experiment: flow cytometry on 293F-IL4Rα cells, blocked ligand biotin human IL4; remark: listed apart in the source
[27] = biological target: human IL4Rα expressed on 293F-IL4Rα cells (human) (UniProt P24394); experiment: flow cytometry, 293F-IL4Rα cells; remark: listed apart in the source
[28] = biological target: human IL4Rα expressed on 293F-IL4Rα cells (human) (UniProt P24394); experiment: flow cytometry on 293F-IL4Rα cells; remark: listed apart in the source
[29] = biological target: recombinant human IL4Rα-his protein (in house made) (human) (UniProt P24394); experiment: competitive ELISA: coated human IL4Rα-his, blocked ligand biotin human IL4; remark: listed apart in the source
[30] = biological target: recombinant human IL4Rα-his protein (in house made) (human) (UniProt P24394); experiment: capture ELISA: antibody captured on anti-IgG Fc plate, biotin human IL4Rα-his detected; remark: listed apart in the source
[31] = biological target: human IL4Rα expressed on HEK293T-IL4Rα-STAT6-STAT6LUC-LB2 cells (human) (UniProt P24394); experiment: cell-based or functional assay; remark: listed apart in the source
[32] = biological target: human IL4Rα expressed on 293F-IL4Rα cells (human) (UniProt P24394); experiment: flow cytometry, 293F-IL4Rα cells; remark: listed apart in the source
[33] = biological target: recombinant human IL4Rα-his protein (in house made) (human) (UniProt P24394); experiment: competitive ELISA, blocks biotin-IL4Rα-his binding to coated Benchmark (self-competition); remark: listed apart in the source
[34] = biological target: recombinant human IL4Rα-his protein (in house made) (human) (UniProt P24394); experiment: competitive ELISA, blocks biotin-IL4 binding to coated IL4Rα-his; remark: listed apart in the source
[35] = biological target: recombinant human IL4Rα-his protein (in house made) (human) (UniProt P24394); experiment: competitive ELISA: coated human IL4Rα-his, blocked ligand biotin human IL4; remark: listed apart in the source
[36] = biological target: recombinant human IL4Rα-his protein (in house made) (human) (UniProt P24394); experiment: capture ELISA: antibody captured on anti-IgG Fc plate, biotin human IL4Rα-his detected; remark: listed apart in the source
[37] = biological target: recombinant human IL4Rα-his protein (in house made) (human) (UniProt P24394); experiment: as above; remark: listed apart in the source
[38] = biological target: human IL4Rα expressed on 293F-IL4Rα cells (human) (UniProt P24394); experiment: flow cytometry on 293F-IL4Rα cells, blocked ligand biotin human IL4; remark: listed apart in the source
[39] = biological target: cynomolgus monkey IL4Rα-his protein (cynomolgus monkey); experiment: indirect ELISA, coated cyno IL4Rα-his; remark: listed apart in the source
[40] = biological target: recombinant human IL4Rα-his protein (in house made) (human) (UniProt P24394); experiment: capture ELISA: antibody captured on anti-IgG Fc plate, biotin human IL4Rα-his detected; remark: listed apart in the source
[41] = biological target: human IL4Rα expressed on 293F-IL4Rα cells (human) (UniProt P24394); experiment: flow cytometry on 293F-IL4Rα cells, blocked ligand biotin human IL4; remark: listed apart in the source
[42] = biological target: recombinant human IL4Rα-his protein (in house made) (human) (UniProt P24394); experiment: competitive ELISA: coated human IL4Rα-his, blocked ligand biotin human IL4; remark: listed apart in the source
[43] = biological target: marmoset monkey IL4Rα-his protein (marmoset monkey); experiment: indirect ELISA on coated cal-IL4Rα-his; remark: listed apart in the source
[44] = biological target: recombinant human IL4Rα-his protein (in house made) (human) (UniProt P24394); experiment: SPR (Biacore), antibody captured, IL4Rα-his flowed; remark: listed apart in the source
[45] = biological target: recombinant human IL4Rα-his protein (in house made) (human) (UniProt P24394); experiment: competitive ELISA: coated human IL4Rα-his, blocked ligand biotin human IL4; remark: listed apart in the source
[46] = biological target: recombinant human IL4Rα-his protein (in house made) (human) (UniProt P24394); experiment: competitive ELISA: antibody mixed with biotin human IL4Rα-his, competitor plate-coated Benchmark; remark: listed apart in the source
[47] = biological target: cynomolgus monkey IL4Rα-his protein (cynomolgus monkey); experiment: indirect ELISA on coated cynomolgus IL4Rα-his; remark: listed apart in the source
[48] = biological target: recombinant human IL4Rα-his protein (in house made) (human) (UniProt P24394); experiment: competitive ELISA: antibody mixed with biotin human IL4Rα-his, competitor plate-coated Benchmark; remark: listed apart in the source
[49] = biological target: recombinant human IL4Rα-his protein (in house made) (human) (UniProt P24394); experiment: competitive ELISA, blocks biotin-IL4 binding to coated IL4Rα-his; remark: listed apart in the source
[50] = biological target: human IL4Rα expressed on 293F-IL4Rα cells (human) (UniProt P24394); experiment: flow cytometry on 293F-IL4Rα cells; remark: listed apart in the source
[51] = biological target: cynomolgus monkey IL4Rα-his protein (cynomolgus monkey); experiment: indirect ELISA on coated cynomolgus IL4Rα-his; remark: listed apart in the source
[52] = biological target: marmoset monkey IL4Rα-his protein (marmoset monkey); experiment: indirect ELISA, coated cal-IL4Rα-his
[53] = biological target: human IL4Rα expressed on 293F-IL4Rα cells (human) (UniProt P24394); experiment: flow cytometry, blocks biotin-IL4 binding to 293F-IL4Rα cells; remark: listed apart in the source
[54] = biological target: human IL4Rα expressed on 293F-IL4Rα cells (human) (UniProt P24394); experiment: flow cytometry on 293F-IL4Rα cells; remark: listed apart in the source

IC50 [1]: 189 pM
IC50 [2]: 15.8 pM
Inhibition on IL4 induced STAT6 phosphorylation (IC50, nM) [3]: 0.37 nM
Inhibition on IL13 induced STAT6 phosphorylation (IC50, nM) [3]: 0.48 nM
EC50 [4]: 128 pM
EC50 [5]: 460 pM
EC50 [6]: 134 pM
EC50 [7]: 674 pM
EC50 [8]: 462 pM
IC50 [9]: 190 pM and 130 pM
IC50 [10]: 421 pM
IC50 [11]: 505 pM
Kd [12]: 444 pM
koff [12]: 0.00033 s⁻¹
kon [12]: 742000 M⁻¹ s⁻¹
EC50 [13]: 50 pM
Inhibition on IL4 induced STAT6 phosphorylation (IC50, nM) [14]: 0.7 nM
Inhibition on IL13 induced STAT6 phosphorylation (IC50, nM) [14]: 0.84 nM
IC50 [15]: 682 pM
EC50 [16]: 22.8 pM
Kd [17]: 170 pM
koff [17]: 3.77e-05 s⁻¹
kon [17]: 222000 M⁻¹ s⁻¹
EC50 [18]: 51.7 pM
EC50 [19]: 950 pM
Dissociation % [20]: -2.64%
End (RU) [20]: 70 RU
Kd [20]: 188 pM
Start (RU) [20]: 71.9 RU
koff [20]: 6.25e-05 s⁻¹
kon [20]: 333000 M⁻¹ s⁻¹
IC50 [21]: 2060 pM
IC50 [22]: 220 pM
EC50 [23]: 81.6 pM
Kd [24]: 466 pM
EC50 [25]: 1840 pM
IC50 [26]: 302 pM
EC50 [27]: 80 pM
EC50 [28]: 254 pM
IC50 [29]: 1740 pM
EC50 [30]: 47.9 pM
Inhibition on IL4 induced STAT6 phosphorylation (IC50, nM) [31]: 0.28 nM
Inhibition on IL13 induced STAT6 phosphorylation (IC50, nM) [31]: 0.53 nM
EC50 [32]: 400 pM and 530 pM
IC50 [33]: 20 pM
IC50 [34]: 680 pM
IC50 [35]: 269 pM
EC50 [36]: 50.5 pM
EC50 [37]: 28.4 pM
IC50 [38]: 220 pM
EC50 [39]: 670 pM and 3340 pM
EC50 [40]: 48.5 pM
IC50 [41]: 313 pM
IC50 [42]: 1560 pM
EC50 [43]: 1720 pM
Kd [44]: 746 pM
IC50 [45]: 2060 pM
IC50 [46]: 23.5 pM
EC50 [47]: 954 pM
IC50 [48]: 132 pM
IC50 [49]: 1740 pM and 1560 pM
EC50 [50]: 526 pM
EC50 [51]: 3340 pM
EC50 [52]: 1720 pM and 1840 pM
IC50 [53]: 420 pM and 510 pM
EC50 [54]: 397 pM
B1: anti-IL4Rα benchmark (Dupilumab) (antibody, INN chains, looked up, V domains shown)
VH: EVQLVESGGGLEQPGGSLRLSCAGSGFTFRDYAMTWVRQAPGKGLEWVSSISGSGGNTYYADSVKGRFTISRDNSKNTLYLQMNSLRAEDTAVYYCAKDRLSITIRPRYYGLDVWGQGTTVTVSS
VL: DIVMTQSPLSLPVTPGEPASISCRSSQSLLYSIGYNYLDWYLQKSGQSPQLLIYLGSNRASGVPDRFSGSGSGTDFTLKISRVEAEDVGFYYCMQALQTPYTFGQGTKLEIKR
